One experiment deals with endogenous CREB. Briefly: Mass shift assay of O-GlcNAcylation on endogenous CREB (off-target marker). Type of experiment: cell-based, human. The note with it: untargeted off-target marker, HEK 293T cells. The procedure: (§1) For immunoblotting analysis, proteins were transferred to a nitrocellulose membrane using iBlot (Thermo Scientific). Membranes were blocked with Tris buffered saline containing 0.1% Tween-20 and 5% BSA and incubated with the primary antibodies (1:1000 dilution) and the secondary antibodies (1:10,000 dilution) sequentially. Immunoblot images were captured by Azure Imager C600. Analysis of immunoblots was conducted with Fiji ImageJ. All IR fluorescence western blot images are converted into grayscale images by Fiji ImageJ. The unsaturated exposure of immunoblot images was used for quantification with the appropriate loading controls as standards. Statistical analysis of the data was performed with Prism 8, using data from at least three independent experiments.
Purification of GalT1 (Y289L) enzyme and labeling of O-GlcNAcylated proteins with GalNAz were performed according to the procedure of Hsieh-Wilson and co-workers (Thompson, J. W., Griffin, M. E. & Hsieh-Wilson, L. C. Methods for the Detection, Study, and Dynamic Profiling of O-GlcNAc Glycosylation. Methods Enzymol. 2018, 598, 101-135). Briefly, cell samples in 6-well plates or 15-cm dishes were harvested and washed by PBS once. The lysis buffer (PBS with 2% SDS) was added into cell pellets and heated for 5 min at 95° C., followed by the sonication to sheer DNA. Protein concentrations were determined by BCA assay. […]

A further experiment has as its system global O-GlcNAcylation. The experiment is described as follows: Global O-GlcNAcylation level in whole cell lysate, anti-O-GlcNAc (RL2) immunoblot. Format: cell-based, human. The note with it: HEK 293T whole cell lysate; OSMI-4b 25 μM for 30 h. How it is done:
After 36-48 h of transfection, cells were harvested and washed with PBS once. Cells were lysed with M-PER lysis buffer containing 1× protease inhibitor cocktail and 10 μM Thiamet-G unless otherwise noted. Protein concentrations were determined by the BCA assay kit (G-Biosciences, 786) on a multi-mode microplate reader FilterMax F3 (Molecular Devices LLC, Sunnyvale, CA).
as §1
In general terms: A western blot detects proteins with antibodies after separation by electrophoresis.

A further experiment relates to O-GlcNAcylated proteome. Briefly: Quantitative TMT mass spectrometry of enriched O-GlcNAcylated proteome. Format: cell-based, human. The note with it: co-expression of GFP-Nup62, versus inactive nGFP-splitOGA(D174N), n=2. The procedure: Purification of GalT1 (Y289L) enzyme and labeling of O-GlcNAcylated proteins with GalNAz were performed according to the procedure of Hsieh-Wilson and co-workers (Thompson, J. W., Griffin, M. E. & Hsieh-Wilson, L. C. Methods for the Detection, Study, and Dynamic Profiling of O-GlcNAc Glycosylation. Methods Enzymol. 2018, 598, 101-135). Briefly, cell samples in 6-well plates or 15-cm dishes were harvested and washed by PBS once. The lysis buffer (PBS with 2% SDS) was added into cell pellets and heated for 5 min at 95° C., followed by the sonication to sheer DNA. Protein concentrations were determined by BCA assay. Cell lysates were reduced and alkylated with 25 mM DTT at 95° C. for 5 min and 50 mM iodoacetamide at room temperature for 1 h respectively. Proteins were precipitated by the methanol/chloroform solution (aqueous phase:CH3OH:CHCl3=4:4:1) and resuspended in 1% SDS, 20 mM HEPES (pH 7.9) buffer with a concentration of 3.75 mg/mL. For 150 μg proteins, H2O (49 μL), 2.5×GalT labeling buffer (80 μL, final concentrations: 50 mM NaCl, 20 mM HEPES, 2% NP-40, pH 7.9), 100 mM MnCl2 (11 μL), 500 μM UDP-GalNAz (10 μL), 2 mg/mL GalT1 (Y289L) (10 μL) were added into cell lysates orderly. […]
For quantitative proteomics, after reaction with Biotin-Alkyne probe, proteins were precipitated and resuspended in 400 μL PBS containing 2% SDS. […]

The target of experiment [1] is T1, OGT with C-terminal His tag (human, UniProt O15294 1-1046, limits assumed).
T1 construct: also called OGT-His; pCMV3-OGT-His; not shown: C-terminal His tag
T1 sequence (looked up): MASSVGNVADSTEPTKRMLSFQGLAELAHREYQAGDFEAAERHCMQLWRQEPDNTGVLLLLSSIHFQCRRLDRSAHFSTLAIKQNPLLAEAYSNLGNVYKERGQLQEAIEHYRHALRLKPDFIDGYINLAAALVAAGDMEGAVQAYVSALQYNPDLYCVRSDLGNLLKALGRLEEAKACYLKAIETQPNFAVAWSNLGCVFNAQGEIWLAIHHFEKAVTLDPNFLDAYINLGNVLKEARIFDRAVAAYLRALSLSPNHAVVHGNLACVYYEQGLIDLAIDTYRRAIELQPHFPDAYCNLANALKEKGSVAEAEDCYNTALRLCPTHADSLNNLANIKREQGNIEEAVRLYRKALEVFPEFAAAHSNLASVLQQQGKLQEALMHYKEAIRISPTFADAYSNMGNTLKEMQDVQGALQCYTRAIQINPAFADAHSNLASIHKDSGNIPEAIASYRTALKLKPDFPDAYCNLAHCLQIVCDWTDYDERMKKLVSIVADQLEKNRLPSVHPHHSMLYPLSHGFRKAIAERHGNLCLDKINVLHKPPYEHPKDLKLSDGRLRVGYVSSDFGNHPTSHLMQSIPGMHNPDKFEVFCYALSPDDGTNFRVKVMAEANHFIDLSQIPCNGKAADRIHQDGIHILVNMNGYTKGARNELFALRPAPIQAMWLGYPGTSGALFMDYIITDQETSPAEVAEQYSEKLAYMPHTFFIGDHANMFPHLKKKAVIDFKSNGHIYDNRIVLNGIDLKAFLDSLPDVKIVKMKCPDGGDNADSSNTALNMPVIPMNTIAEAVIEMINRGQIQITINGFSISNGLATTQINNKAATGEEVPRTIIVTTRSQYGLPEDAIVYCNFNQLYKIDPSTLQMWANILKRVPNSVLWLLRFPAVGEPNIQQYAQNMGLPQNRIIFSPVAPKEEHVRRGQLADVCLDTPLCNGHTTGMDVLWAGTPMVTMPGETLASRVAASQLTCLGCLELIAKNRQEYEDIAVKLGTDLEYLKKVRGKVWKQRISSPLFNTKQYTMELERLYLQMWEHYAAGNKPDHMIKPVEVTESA
Briefly: co-immunoprecipitation with beads against the His tag of OGT from HEK 293T lysates, immunoblot. The procedure:
Overexpressed OGT and its interacting proteins were co-immunoprecipitated by beads against His tag. Whole cell lysates and co-immunoprecipitated proteins were analyzed by immunoblotting assays using the indicated antibodies. Anti-myc and anti-HA blots detect expression of full-length OGA (fl-OGA), N-terminal fragment, and C-terminal fragment, respectively. The data are representative of two biological replicates.
For immunoprecipitation of proteins with His tag, cells were lysed in a buffer containing 50 mM Tris HCl pH 8.0, 150 mM NaCl, 1% Triton X-100, 5% glycerol, 1× protease inhibitor cocktail and 10 μM Thiamet-G on ice for 20 min. Cell lysates with equal amounts of protein were diluted with wash buffer (50 mM Tris HCl pH 8.0, 150 mM NaCl, 0.01% Tween-20) and incubated with pre-washed His-Tag Dynabeads (Invitrogen, 10103D) at room temperature for 20 min with mixing, following the manufacturer's instructions. After washed 4 times with wash buffer, the enriched proteins were eluted with elution buffer (300 mM Imidazole, 50 mM Tris HCl pH 8.0, 150 mM NaCl, 0.01% Tween-20) on a shaker for 10 min at room temperature.

“Also recorded” adds a separate entry of the source.

B1: fl-OGA: Full length OGA with a myc tag (SEQ ID NO: 1) (protein)
chain: MASMQKLISEEDLLMAMEARIRSTVQKESQATLEERESELSSNPAASAGASLEPPAAPAPGEDNPAGAGGAAVAGAAGGARRFLCGVVEGFYGRPWVMEQRKELFRRLQKWELNTYLYAPKDDYKHRMFWREMYSVEEAEQLMTLISAAREYEIEFIYAISPGLDITFSNPKEVSTLKRKLDQVSQFGCRSFALLFDDIDHNMCAADKEVFSSFAHAQVSITNEIYQYLGEPETFLFCPTEYCGTFCYPNVSQSPYLRTVGEKLLPGIEVLWTGPKVVSKEIPVESIEEVSKIIKRAPVIWDNIHANDYDQKRLFLGPYKGRSTELIPRLKGVLTNPNCEFEANYVAIHTLATWYKSNMNGVRKDVVMTDSEDSTVSIQIKLENEGSDEDIETDVLYSPQMALKLALTEWLQEFGVPHQYSSRQVAHSGAKASVVDGTPLVAAPSLNATTVVTTVYQEPIMSQGAALSGEPTTLTKEEEKKQPDEEPMDMVVEKQEETDHKNDNQILSEIVEAKMAEELKPMDTDKESIAESKSPEMSMQEDCISDIAPMQTDEQTNKEQFVPGPNEKPLYTAEPVTLEDLQLLADLFYLPYEHGPKGAQMLREFQWLRANSSVVSVNCKGKDSEKIEEWRSRAAKFEEMCGLVMGMFTRLSNCANRTILYDMYSYVWDIKSIMSMVKSFVQWLGCRSHSSAQFLIGDQEPWAFRGGLAGEFQRLLPIDGANDLFFQPPPLTPTSKVYTIRPYFPKDEASVYKICREMYDDGVGLPFQSQPDLIGDKLVGGLLSLSLDYCFVLEDEDGICGYALGTVDVTPFIKKCKISWIPFMQEKYTKPNGDKELSEAEKIMLSFHEEQEVLPETFLANFPSLIKMDIHKKVTDPSVAKSMMACLLSSLKANGSRGAFCEVRPDDKRILEFYSKLGCFEIAKMEGFPKDVVILGRSL
modifications: myc tag
With B1, the “O-GlcNAcylation level on endogenous CREB” value with endogenous CREB is “reduced O-GlcNAc on CREB and the whole proteome”. In the experiment on global O-GlcNAcylation, the “global O-GlcNAcylation level” value was “global reduction of O-GlcNAc; also recorded: reduced O-GlcNAc on CREB and the whole proteome”. For the same molecule, in the experiment with O-GlcNAcylated proteome, the “change of enriched O-GlcNAcylated protein abundance (global proteome)” value is reported as “globally decreased O-GlcNAcylated proteins”.

B2: split OGA (N2+C3) (enzyme)
chain 1: MEQKLISEEDLAIAMVQKESQATLEERESELSSNPAASAGASLEPPAAPAPGEDNPAGAGGAAVAGAAGGARRFLCGVVEGFYGRPWVMEQRKELFRRLQKWELNTYLYAPKDDYKHRMFWREMYSVEEAEQLMTLISAAREYEIEFIYAISPGLDITFSNPKEVSTLKRKLDQVSQFGCRSFALLFDDIDHNMCAADKEVFSSFAHAQVSITNEIYQYLGEPETFLFCPTEYCGTFCYPNVSQSPYLRTVGEKLLPGIEVLWTGPKVVSKEIPVESIEEVSKIIKRAPVIWDNIHANDYDQKRLFLGPYKGRSTELIPRLKGVLTNPNCEFEANYVAIHTLATWYKSNMNGVRKDVVMTDSEDSTVSIQIKLENEGSDEDIETDVLYSPQMALKLALTEWLQEFGVPHQYSSR
chain 2: MAYPYDVPDYAAIAEKPLYTAEPVTLEDLQLLADLFYLPYEHGPKGAQMLREFQWLRANSSVVSVNCKGKDSEKIEEWRSRAAKFEEMCGLVMGMFTRLSNCANRTILYDMYSYVWDIKSIMSMVKSFVQWLGCRSHSSAQFLIGDQEPWAFRGGLAGEFQRLLPIDGANDLFFQPP
notes: Two co-expressed fragments
Take B2: the binding result in experiment [1] is recorded as “no binding”.

The record behind these values is patent US20240043528A1, “NANOBODY-OGA FUSIONS AND USES THEREOF” (President and Fellows of Harvard College, priority 2020, published 2024).
